Experimental data taken from the supplement of paper PMC10724198.
± gives the standard deviation of the averaged measurements.

Test system: Saccharomyces cerevisiae
Assay: protein stability index of tFT-peptide fusion (C-terminal peptide) (PSI (0-1 scale)); higher = more stable (slower turnover)
Settings: temperature: 30 C
Method: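 MPS profiling in S. cerevisiae of the yeast C-terminome library: the last 12 aa of each annotated ORF are fused to the C-terminus of a sfGFP-mCherry timer, after a GGGS linker. Cells are FACS-sorted into 8 mCherry/sfGFP bins and deep-sequenced. PSI runs from 0 (unstable) to 1 (stable); wild type and das1Δ backgrounds, two technical replicates each.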

[1] = genetic background: das1 deletion

Sequence	protein stability index [1]	protein stability index (genetic background: wild type)
KADNWKCKIQSA [GDA1 C-terminal 12 aa]	0.69 ± 0.018	0.641 ± 0.011
AMFNDIWKNANE [UPS3 C-terminal 12 aa]	0.7263 ± 0.0062	0.711 ± 0.015
DVQGICLRNDKK [SLX4 C-terminal 12 aa]	0.684 ± 0.011	0.651 ± 0.008
SFERLLVETIYS [ALG13 C-terminal 12 aa]	0.5878 ± 0.0031	0.624 ± 0.01
LSLRTKNTENKE [YGL159W C-terminal 12 aa]	0.716 ± 0.038	0.688 ± 0.033
IEQSFGVIEYFP [SCW11 C-terminal 12 aa]	0.717 ± 0.037	0.71 ± 0.011
INIVVDMLASQH [RMD1 C-terminal 12 aa]	0.606 ± 0.025	0.591 ± 0.011
IGTLIPEPGVNV [DAP1 C-terminal 12 aa]	0.6825 ± 0.0027	0.676 ± 0.032
KTYLNFADNGQI [ELM1 C-terminal 12 aa]	0.675 ± 0.0079	0.721 ± 0.062
LIDSVKKKVNND [SAC3 C-terminal 12 aa]	0.681 ± 0.029	0.697 ± 0.069
LRIYKNPPLDGP [YJL163C C-terminal 12 aa]	0.729 ± 0.022	0.745 ± 0.017
EVDIDSLLAKLN [RLP7 C-terminal 12 aa]	0.7114 ± 0.0065	0.407 ± 0.023
KLENESLPNLSG [TRI1 C-terminal 12 aa]	0.691 ± 0.013	0.685 ± 0.016
LLLSFYFDFYPF [YEL050W-A C-terminal 12 aa]	0.515 ± 0.009	0.6535 ± 0.0032
CKSNKKHKQRQG [RTC6 C-terminal 12 aa]	0.701 ± 0.031	0.601 ± 0.02
IQEDSPVMDNNT [FAP1 C-terminal 12 aa]	0.722 ± 0.041	0.674 ± 0.036
SENRFELAYFTS [YLR317W C-terminal 12 aa]	0.728 ± 0.027	0.6901 ± 0.0013
VFNNISLNFYIQ [YLL020C C-terminal 12 aa]	0.782 ± 0.059	0.692 ± 0.0021
LSSSDDNYGSLA [SNA2 C-terminal 12 aa]	0.702 ± 0.013	0.669 ± 0.034
ILDLDPRTEAYC [YGL260W C-terminal 12 aa]	0.733 ± 0.02	0.691 ± 0.013
RQTRNQTKELDS [DPB11 C-terminal 12 aa]	0.703 ± 0.033	0.691 ± 0.037

Sequence	protein stability index [1]	protein stability index (genetic background: wild type)
AKYALLEVLKVS [YOR102W C-terminal 12 aa]	0.581 ± 0.0095	0.187 ± 0.017
DTVPPEKLMKFV [RAX2 C-terminal 12 aa]	0.7111 ± 0.0024	0.66 ± 0.027
LFVEETNDIGYK [TRE2 C-terminal 12 aa]	0.736 ± 0.026	0.691 ± 0.021
ATSILLWYSNYS [CNM1 C-terminal 12 aa]	0.739 ± 0.013	0.6973 ± 0.00096
YCLFEKPTETTN [ALG9 C-terminal 12 aa]	0.736 ± 0.029	0.695 ± 0.061
DSATLVNVHIKR [SPR3 C-terminal 12 aa]	0.7064 ± 0.0062	0.7269 ± 0.0019
GNAEFAASLLFQ [DDI1 C-terminal 12 aa]	0.7205 ± 0.0066	0.7022 ± 0.0025
AKSEDISCVLII [YPL238C C-terminal 12 aa]	0.711 ± 0.025	0.646 ± 0.022
SLLLEKLDPEIE [UBX5 C-terminal 12 aa]	0.731 ± 0.056	0.716 ± 0.013
IWCAPTVDARPI [NIT1 C-terminal 12 aa]	0.7229 ± 0.0014	0.6998 ± 0.0015
RFQDGTSVVSIM [SMC2 C-terminal 12 aa]	0.695 ± 0.011	0.6814 ± 0.006
DSSKYSLGNNSS [SUR1 C-terminal 12 aa]	0.713 ± 0.025	0.686 ± 0.016
FCKEKVYSKLLV [YNL103W-A C-terminal 12 aa]	0.648 ± 0.015	0.559 ± 0.0084
TWFKYFKWLDMF [MRX3 C-terminal 12 aa]	0.7723 ± 0.0025	0.217 ± 0.0084
EHDKSPLSRKRQ [SFI1 C-terminal 12 aa]	0.708 ± 0.015	0.703 ± 0.035
IVNVMFCLVRGF [DSC3 C-terminal 12 aa]	0.42 ± 0.021	0.404 ± 0.03
CPSVEEIANETE [GCV2 C-terminal 12 aa]	0.696 ± 0.013	0.653 ± 0.0098
QPKKKRKKSILH [SPP41 C-terminal 12 aa]	0.749 ± 0.061	0.672 ± 0.05
QRIEGMLQLLTS [UTP15 C-terminal 12 aa]	0.715 ± 0.025	0.64093 ± 0.00026
EQNLEALAKSFF [BEM4 C-terminal 12 aa]	0.734 ± 0.023	0.697 ± 0.029
FYSVFALMVIFV [YIP1 C-terminal 12 aa]	0.178 ± 0.013	0.122 ± 0.003

Sequence	protein stability index [1]	protein stability index (genetic background: wild type)
KFDKALYKKTTG [YMR206W C-terminal 12 aa]	0.712 ± 0.038	0.669 ± 0.03
YKQVSSHNSHSQ [CUP2 C-terminal 12 aa]	0.68 ± 0.034	0.691 ± 0.014
SPIQLKDLESQI [SYS1 C-terminal 12 aa]	0.677 ± 0.019	0.717 ± 0.0082
LKSLSKYSVQNS [CTF3 C-terminal 12 aa]	0.686 ± 0.014	0.678 ± 0.042
KKDFNEDDSLFG [VPS55 C-terminal 12 aa]	0.722 ± 0.013	0.694 ± 0.0072
DRWLNRKALNKG [BUD21 C-terminal 12 aa]	0.695 ± 0.031	0.676 ± 0.021
YYNLKNCITSET [YHR050W-A C-terminal 12 aa]	0.661 ± 0.007	0.6465 ± 0.0017
TEEVEKAISKSQ [YFH1 C-terminal 12 aa]	0.7018 ± 0.0027	0.7208 ± 0.0067
GHSHKHKGHQKK [KRI1 C-terminal 12 aa]	0.673 ± 0.008	0.667 ± 0.018
VWNTFYKLGKRV [TMT1 C-terminal 12 aa]	0.7048 ± 0.0066	0.6583 ± 0.0029
KKRDPITGEVFE [ERG5 C-terminal 12 aa]	0.6849 ± 0.0021	0.667 ± 0.016
ALLDPSDTLNFM [RDR1 C-terminal 12 aa]	0.697 ± 0.024	0.704 ± 0.055
TDTTLIYDIDLE [SPT8 C-terminal 12 aa]	0.709 ± 0.036	0.718 ± 0.039
LAFYLRRLTAKK [RPS8A C-terminal 12 aa]	0.674 ± 0.041	0.657 ± 0.0076
SRQFEQNLQIND [SLF1 C-terminal 12 aa]	0.7394 ± 0.0052	0.676 ± 0.013
RRTSSISTYLIL [YBL107W-A C-terminal 12 aa]	0.735 ± 0.027	0.662 ± 0.043
INDKYKSNRTDS [ATG2 C-terminal 12 aa]	0.697 ± 0.022	0.7162 ± 0.00084
PKALFQSRDQEH [SIC1 C-terminal 12 aa]	0.724 ± 0.022	0.702 ± 0.014
GAQPHLYIPDED [USA1 C-terminal 12 aa]	0.6896 ± 0.0026	0.6982 ± 0.003
